# From US20190248900A1 (Y BIOLOGICS, published 2019)
# Where a chain is given by its changes, count along the chain named.
# T1: ITGA6-Fc
# T1 construct: Fc fusion
# T1 sequence (P23229 whole entry, species assumed, looked up): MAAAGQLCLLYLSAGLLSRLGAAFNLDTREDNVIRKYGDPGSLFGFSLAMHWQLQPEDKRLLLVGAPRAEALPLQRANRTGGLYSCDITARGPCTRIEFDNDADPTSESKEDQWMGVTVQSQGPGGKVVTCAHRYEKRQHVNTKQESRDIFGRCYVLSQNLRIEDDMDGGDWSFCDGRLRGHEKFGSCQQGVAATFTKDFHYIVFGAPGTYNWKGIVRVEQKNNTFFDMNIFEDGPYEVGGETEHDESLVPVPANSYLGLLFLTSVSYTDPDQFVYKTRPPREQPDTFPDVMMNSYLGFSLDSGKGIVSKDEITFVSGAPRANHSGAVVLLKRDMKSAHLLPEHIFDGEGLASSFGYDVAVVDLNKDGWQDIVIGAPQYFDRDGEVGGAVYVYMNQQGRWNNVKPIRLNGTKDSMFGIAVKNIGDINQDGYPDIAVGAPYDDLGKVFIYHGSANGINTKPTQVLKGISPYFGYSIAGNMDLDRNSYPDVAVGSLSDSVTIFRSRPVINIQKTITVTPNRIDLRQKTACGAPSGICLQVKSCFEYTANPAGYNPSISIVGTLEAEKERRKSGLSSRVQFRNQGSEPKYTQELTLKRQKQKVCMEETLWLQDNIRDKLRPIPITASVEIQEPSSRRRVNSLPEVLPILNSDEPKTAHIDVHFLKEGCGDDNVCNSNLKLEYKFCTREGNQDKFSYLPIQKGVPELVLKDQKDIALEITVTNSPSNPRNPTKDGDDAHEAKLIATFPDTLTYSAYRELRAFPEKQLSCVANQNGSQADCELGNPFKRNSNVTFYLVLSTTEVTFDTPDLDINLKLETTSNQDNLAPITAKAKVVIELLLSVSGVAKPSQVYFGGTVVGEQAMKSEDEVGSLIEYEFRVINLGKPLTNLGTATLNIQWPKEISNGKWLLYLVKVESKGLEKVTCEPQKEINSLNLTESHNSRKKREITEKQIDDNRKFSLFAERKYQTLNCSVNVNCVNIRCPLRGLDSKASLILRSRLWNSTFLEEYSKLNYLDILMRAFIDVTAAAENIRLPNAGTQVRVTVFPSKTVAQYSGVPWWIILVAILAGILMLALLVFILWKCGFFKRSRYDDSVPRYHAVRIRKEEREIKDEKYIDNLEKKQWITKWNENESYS
# B1: PD1-51D9 (antibody, V domains shown)
# VH: QVQLVESGAEVKKPGASVKLSCKASGYTFSSYWMHWVRQAPGQRLEWMGEINPGNGHTNYNEKFKSRVTITVDKSASTAYMELSSLRSEDTAVYYCAREGDGSYWGYFDSWGQGTPITVSS
# VL: DIVMTQTPLSLPVTPGEPASISCRSSQSLLHSNGNNYLDWYLQKPGQSPQLLIYLGSYRASGVPDRFSGSGSGTDFTLKISRVEAEDVGLYYCMQGLQIPSTFGPGTKVDIK
# notes: scFv-phage in the screening ELISA; whole IgG in the other assays
# B2: PD1-72D10 (antibody, V domains shown)
# VH: QVQLVESGGGVVQPGRSLRLSCAASGFTFSSYAMHWVRQAPGKGLEWVAVISYDGSNKYYADSVKGRFTISRDNSKNTLYLQMNSLRAEDTAVYYCTTTTFDSWGQGTLVTVSS
# VL: DIVMTQTPLSLPVTPGEAASISCRSSQSLLDSEDGNTYLDWYLQKPGQSPQLLIYTLSHRASGVPDRFSGSGSGTDFTLKISRVEAEDVGIYYCMQRVEFPFTFGQGTKLEIK
# B3: PD1-49A2(A/2A11) (antibody, V domains shown)
# VH: B2 VH with S30R, S56Q, N57D
# VL: DIVMTQTPLSLPVTPGEPASISCRSSQSLFDSDDGNTYLDWYLQKPGQSPRLLIYTLSHRALGVPDRFSGSGSGTDFTLKISRVAAEDVGLYYCLQRMGFPYTFGQGTKLEIK
# B4: PD1-49A2(A/1F12) (antibody, V domains shown)
# VH: B2 VH with S30R, S31N, S56Q, N57H, G105S
# VL: B2 VL with L9H, A18P, S62L, V89S, V98I, F102Y
# B5: PD1-49A2(A/1H4) (antibody, V domains shown)
# VH: B2 VH with S30P, S31I, S56A, N57H
# VL: B2 VL with T7S, V89S, F102Y, E111D
# B6: PD1-74H12 (antibody, V domains shown)
# VH: B2 VH with T78M, Q82E, T97V, T98P, D102E, S103Y, T108S, L109Q
# VL: DIVMTQTPLSLSVTPGEPASISCRSSQSLLDSDDGNTYLDWYLQKPGQSPQLLIYTLSHRASGVPDRFSGRGSHTDFTLTISSVEAEDVGVYYCMQRIHFPLTFGQGTRLEIK
# B7: PD1-74A01 (antibody, V domains shown)
# VH: B2 VH with A88S, T97V, T98P, D102E, S103Y, T108S, L109Q
# VL: B2 VL with A18P, S32R, E33G, D34G, N36H, V98K, F102L, Q106P
# B8: PD1-45D6(A/4C1) (antibody, V domains shown)
# VH: B2 VH with S56N, N57D, T97V, T98P, D102E, S103Y
# VL: B2 VL with A18P, E33D, E111D
# B9: PD1-49A2(A/2B10) (antibody, V domains shown)
# VH: B2 VH with S30L, S31V, N57H
# VL: B2 VL with A18P, E33D, E85A, I91L, E111D
# B10: PD1-75C10 (antibody, V domains shown)
# VH: B2 VH with T97V, T98P, D102E, S103Y, T108S, L109Q
# VL: B2 VL with S82T, I91V, V98I, F102Y
# B11: PD1-45D6(A/4D4) (antibody, V domains shown)
# VH: B2 VH with S56N, N57D, T97V, T98P, D102E, S103Y
# VL: B2 VL with A18P, D76E, T78N, K80R, L110V, E111D
# B12: PD1-45D6(A/4C9) (antibody, V domains shown)
# VH: B2 VH with S56N, N57D, T97V, T98P, D102E, S103Y
# VL: B2 VL with E85A
# B13: PD1-45D6(A/5B12) (antibody, V domains shown)
# VH: B2 VH with S31V, S56N, N57D, T97V, T98P, D102E, S103Y
# VL: B2 VL with L110V
# B14: PD1-45D6(A/3H6) (antibody, V domains shown)
# VH: B2 VH with A40V, S56N, N57D, T97V, T98P, D102E, S103Y, T108S, L109Q
# VL: B2 VL with I91V
# B15: PD1-45D6(A/5A6) (antibody, V domains shown)
# VH: B2 VH with S30R, S31L, Y53H, S56N, N57D, T97V, T98P, D102E, S103Y
# VL: B2 VL with A18P, I91V, V98I, E99D, F102Y, E111D
# B16: PD1-45D6(A/5H9) (antibody, V domains shown)
# VH: B2 VH with S30W, S31T, S56N, N57D, T97V, T98P, D102E, S103Y
# VL: B2 VL with A18P, E33D, P65S, K80E, I91V, V98R, E99D, L110V
# B17: PD1-74A11 (antibody, V domains shown)
# VH: B2 VH with E6Q, T97A, T98R, S103Y, V110I
# VL: B2 VL with A18P, L30F, E33D, H59Y, E85A, L110V, E111D
# B18: PD1-45D6(A/3G1) (antibody, V domains shown)
# VH: B2 VH with A40V, S56N, N57D, T97V, T98P, D102E, S103Y, T108S, L109Q
# VL: B2 VL with A18P, K80E, I91V, E111D
# B19: PD1-45D6(A/5C8) (antibody, V domains shown)
# VH: B2 VH with S30M, S31R, S56N, N57D, T97V, T98P, D102E, S103Y
# VL: B2 VL with T7S, A18P, I91V, E111D
# B20: PD1-45D6(A/3H4) (antibody, V domains shown)
# VH: B2 VH with A40V, S56N, N57D, T97V, T98P, D102E, S103Y, T108S, L109Q
# VL: B2 VL with A18P, L30F, E33D, P65S, V89S, E111D
# B21: PD1-45D6(A/4H6) (antibody, V domains shown)
# VH: B2 VH with S56N, N57D, T97V, T98P, D102E, S103Y
# VL: B2 VL with A18P, L30F, E33D, I91L
# Columns and labels:
# [1] = molecular target: T2, M2; test: scFv-phage ELISA
# T2 construct: also called PD1 mutant M2
# [2] = molecular target: T3, M2-1; test: scFv-phage ELISA
# T3 construct: also called PD1 mutant M2-1
# [3] = molecular target: T4, M2-2; test: scFv-phage ELISA
# T4 construct: also called PD1 mutant M2-2
# [4] = molecular target: T5, M3; test: scFv-phage ELISA
# T5 construct: also called PD1 mutant M3
# [5] = molecular target: T6, M4; test: scFv-phage ELISA
# T6 construct: also called PD1 mutant M4
# [6] = molecular target: T7, M11; test: scFv-phage ELISA
# T7 construct: also called PD1 mutant M11
# [7] = molecular target: T8, M5; test: scFv-phage ELISA
# T8 construct: also called PD1 mutant M5
# [8] = molecular target: T9, M5-1; test: scFv-phage ELISA
# T9 construct: also called PD1 mutant M5-1
# [9] = molecular target: T10, M5-2; test: scFv-phage ELISA
# T10 construct: also called PD1 mutant M5-2
# [10] = molecular target: T11, M6; test: scFv-phage ELISA
# T11 construct: also called PD1 mutant M6
# [11] = molecular target: T12, M12; test: scFv-phage ELISA
# T12 construct: also called PD1 mutant M12
# [12] = molecular target: T13, M13; test: scFv-phage ELISA
# T13 construct: also called PD1 mutant M13
# [13] = molecular target: T14, M14; test: scFv-phage ELISA
# T14 construct: also called PD1 mutant M14
# [14] = molecular target: T15, M7; test: scFv-phage ELISA
# T15 construct: also called PD1 mutant M7
# [15] = molecular target: T16, M7-1; test: scFv-phage ELISA
# T16 construct: also called PD1 mutant M7-1
# [16] = molecular target: T17, M7-2; test: scFv-phage ELISA
# T17 construct: also called PD1 mutant M7-2
# [17] = molecular target: T18, M8; test: scFv-phage ELISA
# T18 construct: also called PD1 mutant M8
# [18] = molecular target: T19, M9; test: scFv-phage ELISA
# T19 construct: also called PD1 mutant M9
# [19] = molecular target: T20, M10; test: scFv-phage ELISA
# T20 construct: also called PD1 mutant M10
# [20] = molecular target: T1, ITGA6-Fc; test: scFv-phage ELISA
# [21] = molecular target: T21, M1; test: scFv-phage ELISA
# T21 construct: also called PD1 mutant M1
# [22] = molecular target: T22, M1-1; test: scFv-phage ELISA
# T22 construct: also called PD1 mutant M1-1
# [23] = molecular target: T23, M1-2; test: scFv-phage ELISA
# T23 construct: also called PD1 mutant M1-2
# [24] = molecular target: human PD-1 (NM_005018.2) over-expressed on cells (human, UniProt Q15116 25-288); test: cell-based or functional assay
# human PD-1 (NM_005018.2) over-expressed on cells, sequence (Q15116 25-288): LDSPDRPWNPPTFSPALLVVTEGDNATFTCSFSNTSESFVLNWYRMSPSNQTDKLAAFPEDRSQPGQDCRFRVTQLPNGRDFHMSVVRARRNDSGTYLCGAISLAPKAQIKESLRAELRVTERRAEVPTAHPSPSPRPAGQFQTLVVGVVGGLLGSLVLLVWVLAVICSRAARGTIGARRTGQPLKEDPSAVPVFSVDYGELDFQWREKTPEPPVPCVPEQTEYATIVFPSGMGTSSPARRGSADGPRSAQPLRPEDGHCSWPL
binder,measurement,setting,value
B1,OD490,[1],0.1
same,OD490,[2],0.4
same,OD490,[3],0.6
same,OD490,[4],0.3
same,OD490,[5],1.1
same,OD490,[6],0.1
same,OD490,[7],0.1
same,OD490,[8],0.1
same,OD490,[9],0.6
same,OD490,[10],0.3
same,OD490,[11],0.3
same,OD490,[12],0.7
same,OD490,[13],0.8
same,OD490,[14],0.1
same,OD490,[15],0.1
same,OD490,[16],0.3
same,OD490,[17],0.1
same,OD490,[18],0.3
same,OD490,[19],0.1
same,OD490,[20],0.1
same,OD490,[21],0.2
same,OD490,[22],0.2
same,OD490,[23],0.4
B2,"EC50 [nM], PD1/PD-L1 blockade bioassay",[24],1.21 nM
B3,"EC50 [nM], PD1/PD-L1 blockade bioassay",[24],0.79 nM
B4,"EC50 [nM], PD1/PD-L1 blockade bioassay",[24],1.03 nM
B5,"EC50 [nM], PD1/PD-L1 blockade bioassay",[24],0.84 nM
B6,"EC50 [nM], PD1/PD-L1 blockade bioassay",[24],0.98 nM
B7,"EC50 [nM], PD1/PD-L1 blockade bioassay",[24],1.01 nM
B8,"EC50 [nM], PD1/PD-L1 blockade bioassay",[24],1.76 nM
B9,"EC50 [nM], PD1/PD-L1 blockade bioassay",[24],0.65 nM
B10,"EC50 [nM], PD1/PD-L1 blockade bioassay",[24],0.81 nM
B11,"EC50 [nM], PD1/PD-L1 blockade bioassay",[24],1.74 nM
B12,"EC50 [nM], PD1/PD-L1 blockade bioassay",[24],2.72 nM
B13,"EC50 [nM], PD1/PD-L1 blockade bioassay",[24],0.8 nM
B14,"EC50 [nM], PD1/PD-L1 blockade bioassay",[24],1.49 nM
B15,"EC50 [nM], PD1/PD-L1 blockade bioassay",[24],0.92 nM
B16,"EC50 [nM], PD1/PD-L1 blockade bioassay",[24],2 nM
B17,"EC50 [nM], PD1/PD-L1 blockade bioassay",[24],1.31 nM
B18,"EC50 [nM], PD1/PD-L1 blockade bioassay",[24],0.98 nM
B19,"EC50 [nM], PD1/PD-L1 blockade bioassay",[24],1.44 nM
B20,"EC50 [nM], PD1/PD-L1 blockade bioassay",[24],1.67 nM
B21,"EC50 [nM], PD1/PD-L1 blockade bioassay",[24],1.19 nM
